The source of these data is article PMC3017781, “Structure-function relationships of wheat flavone O-methyltransferase: Homology modeling and site-directed mutagenesis” (BMC Plant Biology, 2010).

Substrate in series [1]: O=c1cc(-c2cc(O)c(O)c(O)c2)oc2cc(O)cc(O)c12
In words: purified protein.

Substrate in series [2]: COc1cc(/C=C/C(=O)O)cc(O)c1O
Kind of series: radiometric methyltransferase assay with [3H]SAM, Lineweaver-Burk. It counts as biochemical, Triticum aestivum. The following applies: co-substrate SAM (AdoMet) 1 mM, 30°C, 15 min.

[3] abbreviates: co-substrate SAM (AdoMet) 1 mM, 30°C, 15 min.

B1: TaOMT2 (Triticum aestivum; W259A) (protein)
chain: MGSIAAGADEDACMYALQLVSSSILPMTLKNAIELGLLETLMAAGGKFLTPAEVAAKLPSAANPEAPDMVDRMLRLLASYNVVSCRTEDGKDGRLSRRYGAAPVCKYLTPNEDGVSMSALALMNQDKVLMESWYYLKDAVLDGGIPFNKAYGMSAFEYHGTDPRFNRVFNEGMKNHSIIITKKLLESYKGFEGLGTLVDVGGGVGATVAAITAHYPTIKGINFDLPHVISEAPPFPGVTHVGGDMFQKVPSGDAILMKAILHDWSDEHCATLLKNCYDALPAHGKVVLVECILPVNPEATPKAQGVFHVDMIMLAHNPGGRERYEREFEALAKGAGFAAMKTTYIYANAWAIEFTK
With B1, the Michaelis-Menten constant (Km) (in general, the concentration of substrate that gives half-maximal velocity) in series [1] (co-substrate SAM, saturating) stood at 131.0 µM.

B2: TaOMT2 (Triticum aestivum; W259Y) (protein)
chain: MGSIAAGADEDACMYALQLVSSSILPMTLKNAIELGLLETLMAAGGKFLTPAEVAAKLPSAANPEAPDMVDRMLRLLASYNVVSCRTEDGKDGRLSRRYGAAPVCKYLTPNEDGVSMSALALMNQDKVLMESWYYLKDAVLDGGIPFNKAYGMSAFEYHGTDPRFNRVFNEGMKNHSIIITKKLLESYKGFEGLGTLVDVGGGVGATVAAITAHYPTIKGINFDLPHVISEAPPFPGVTHVGGDMFQKVPSGDAILMKYILHDWSDEHCATLLKNCYDALPAHGKVVLVECILPVNPEATPKAQGVFHVDMIMLAHNPGGRERYEREFEALAKGAGFAAMKTTYIYANAWAIEFTK
Regarding B2, in series [1] (co-substrate SAM, saturating), the Michaelis constant (Km) is 170.1 µM.

B3: TaOMT2 (Triticum aestivum; E322I) (protein)
chain: MGSIAAGADEDACMYALQLVSSSILPMTLKNAIELGLLETLMAAGGKFLTPAEVAAKLPSAANPEAPDMVDRMLRLLASYNVVSCRTEDGKDGRLSRRYGAAPVCKYLTPNEDGVSMSALALMNQDKVLMESWYYLKDAVLDGGIPFNKAYGMSAFEYHGTDPRFNRVFNEGMKNHSIIITKKLLESYKGFEGLGTLVDVGGGVGATVAAITAHYPTIKGINFDLPHVISEAPPFPGVTHVGGDMFQKVPSGDAILMKWILHDWSDEHCATLLKNCYDALPAHGKVVLVECILPVNPEATPKAQGVFHVDMIMLAHNPGGRIRYEREFEALAKGAGFAAMKTTYIYANAWAIEFTK
Take B3: the Michaelis constant (Km) in series [1] (co-substrate SAM, saturating) stood at 193.17 µM.

B4: TaOMT2 (Triticum aestivum) (protein)
chain: MGSIAAGADEDACMYALQLVSSSILPMTLKNAIELGLLETLMAAGGKFLTPAEVAAKLPSAANPEAPDMVDRMLRLLASYNVVSCRTEDGKDGRLSRRYGAAPVCKYLTPNEDGVSMSALALMNQDKVLMESWYYLKDAVLDGGIPFNKAYGMSAFEYHGTDPRFNRVFNEGMKNHSIIITKKLLESYKGFEGLGTLVDVGGGVGATVAAITAHYPTIKGINFDLPHVISEAPPFPGVTHVGGDMFQKVPSGDAILMKWILHDWSDEHCATLLKNCYDALPAHGKVVLVECILPVNPEATPKAQGVFHVDMIMLAHNPGGRERYEREFEALAKGAGFAAMKTTYIYANAWAIEFTK
notes: full length, 356 residues, vector pET200/D-TOPO, expressed in E. coli BL21 (DE3), Ni-NTA purified, tag removal not mentioned; dimer in solution (monomers also active)
Take B4: the values for the Km in series [1] (setting [3]) and in series [2] were 59.51 ± 0.79 µM and 270.98 ± 11.51 µM, respectively.

B5: TaOMT2 (Triticum aestivum; V309I) (protein)
chain: MGSIAAGADEDACMYALQLVSSSILPMTLKNAIELGLLETLMAAGGKFLTPAEVAAKLPSAANPEAPDMVDRMLRLLASYNVVSCRTEDGKDGRLSRRYGAAPVCKYLTPNEDGVSMSALALMNQDKVLMESWYYLKDAVLDGGIPFNKAYGMSAFEYHGTDPRFNRVFNEGMKNHSIIITKKLLESYKGFEGLGTLVDVGGGVGATVAAITAHYPTIKGINFDLPHVISEAPPFPGVTHVGGDMFQKVPSGDAILMKWILHDWSDEHCATLLKNCYDALPAHGKVVLVECILPVNPEATPKAQGVFHIDMIMLAHNPGGRERYEREFEALAKGAGFAAMKTTYIYANAWAIEFTK
notes: as for B4
Turning to B5, the Km in series [1] (setting [3]) amounted to 101.08 ± 9.68 µM; in series [2] it was 18.24 ± 1.72 µM.

B6: TaOMT2 (Triticum aestivum; D263N) (protein)
chain: MGSIAAGADEDACMYALQLVSSSILPMTLKNAIELGLLETLMAAGGKFLTPAEVAAKLPSAANPEAPDMVDRMLRLLASYNVVSCRTEDGKDGRLSRRYGAAPVCKYLTPNEDGVSMSALALMNQDKVLMESWYYLKDAVLDGGIPFNKAYGMSAFEYHGTDPRFNRVFNEGMKNHSIIITKKLLESYKGFEGLGTLVDVGGGVGATVAAITAHYPTIKGINFDLPHVISEAPPFPGVTHVGGDMFQKVPSGDAILMKWILHNWSDEHCATLLKNCYDALPAHGKVVLVECILPVNPEATPKAQGVFHVDMIMLAHNPGGRERYEREFEALAKGAGFAAMKTTYIYANAWAIEFTK
Consider B6, for which the Michaelis-Menten constant (Km) in series [1] (co-substrate SAM, saturating) came out at 128.2 µM.

B7: TaOMT2 (Triticum aestivum; G305S) (protein)
chain: MGSIAAGADEDACMYALQLVSSSILPMTLKNAIELGLLETLMAAGGKFLTPAEVAAKLPSAANPEAPDMVDRMLRLLASYNVVSCRTEDGKDGRLSRRYGAAPVCKYLTPNEDGVSMSALALMNQDKVLMESWYYLKDAVLDGGIPFNKAYGMSAFEYHGTDPRFNRVFNEGMKNHSIIITKKLLESYKGFEGLGTLVDVGGGVGATVAAITAHYPTIKGINFDLPHVISEAPPFPGVTHVGGDMFQKVPSGDAILMKWILHDWSDEHCATLLKNCYDALPAHGKVVLVECILPVNPEATPKAQSVFHVDMIMLAHNPGGRERYEREFEALAKGAGFAAMKTTYIYANAWAIEFTK
For the protein B7, the Km in series [1] (co-substrate SAM, saturating) was 118.41 µM.
